Residue numbers refer to the chain shown, from its start. Blank lines part the entries; values can stand above or below the binder they belong to.
How the values were obtained:
[1] = target: T1, recombinant human latent TGF-beta 1 (Flag-tagged human latent TGF-beta 1) (human, UniProt P01137 34-390); assay: SPR, Biacore T200, 37 C, pH 7.4; antibody captured by anti-human Fc, latent TGF-beta 1 injected at 3.125 to 50 nM
T1 construct: Latent form: LAP plus mature TGF-beta 1; also called human recombinant latent TGF-beta 1; SLC
Protocol: (§1) The affinities of anti-latent TGF-beta 1 antibodies binding to human or mouse latent TGF-beta 1 at pH 7.4 were determined at 37 degrees C. using Biacore T200 instrument (GE Healthcare). Anti-human Fc (GE Healthcare) was immobilized onto all flow cells of a CM4 sensor chip using an amine coupling kit (GE Healthcare). All antibodies and analytes were prepared in ACES pH 7.4 containing 20 mM ACES, 150 mM NaCl, 1.2 mM CaCl₂), 0.05% Tween 20, 0.005% NaN3. Each antibody was captured onto the sensor surface by anti-human Fc. Antibody capture levels were aimed at 300 resonance unit (RU). For TBA865 and TBA873, recombinant human or mouse latent TGF-beta 1 was injected at 12.5 to 200 nM prepared by two-fold serial dilution, followed by dissociation. For TBS139 and TBS182, recombinant human or mouse latent TGF-beta 1 was injected at 3.125 to 50 nM prepared by two-fold serial dilution, followed by dissociation. The sensor surface was regenerated each cycle with 3M MgCl2.

[2] = target: T2, recombinant mouse latent TGF-beta 1 (Flag-tagged mouse latent TGF-beta 1) (mouse, UniProt P04202 34-390); assay: SPR, Biacore T200, 37 C, pH 7.4; antibody captured by anti-human Fc, latent TGF-beta 1 at 3.125 to 50 nM as analyte; 1:1 model
T2 construct: also called mouse recombinant latent TGF-beta 1
Protocol: as §1

[3] = target: T1, recombinant human latent TGF-beta 1 …; assay: SPR, Biacore T200, 37 C, pH 7.4; antibody captured by anti-human Fc, latent TGF-beta 1 at 12.5 to 200 nM as analyte; 1:1 model
Protocol: (§2) The affinities of anti-latent TGF-beta 1 antibodies binding to human latent TGF-beta 1 at pH 7.4 were determined at 37 degrees C. using Biacore T200 instrument (GE Healthcare). Anti-human Fc (GE Healthcare) was immobilized onto all flow cells of a CM4 sensor chip using an amine coupling kit (GE Healthcare). All antibodies and analytes were prepared in ACES pH 7.4 containing 20 mM ACES, 150 mM NaCl, 1.2 mM CaCl₂, 0.05% Tween 20, and 0.005% NaN₃. Each antibody was captured onto the sensor surface by anti-human Fc. Antibody capture levels were aimed at 300 resonance unit (RU). Recombinant human latent TGF-beta 1 was injected at a concentration of 12.5 to 200 nM prepared by two-fold serial dilution, followed by dissociation. Sensor surface was regenerated each cycle with 3M MgCl₂.

[4] = target: T2, recombinant mouse latent TGF-beta 1 …; assay: SPR, Biacore 8K, 37 C, pH 7.4; antibody captured by anti-human Fc, latent TGF-beta 1 as analyte; 1:1 model
[5] = target: T3, mouse mature TGF-beta 1 (mouse, UniProt P04202 279-390); assay: ELISA on plate-coated mouse mature TGF-beta 1, detection with anti-human IgG-HRP
T3 construct: mature; also the active TGF-beta 1 released in the mouse PBMC co-culture assay
Protocol: 384-well plate was coated with mouse mature TGF-beta 1 for overnight at 4 degrees C. After four times washing with TBS-T, the plate was blocked with blocking buffer (1×TBS/tween20+0.5% BSA+1× Block ace) for 2 hours at room temperature. After four times washing with TBS-T, antibody solution was added into the plate and incubated for 2 hours at room temperature. After four times washing with TBS-T, a diluted secondary antibody (goat anti-human IgG-HRP Santa Cruz Cat.sc-2453) was add into the plate and incubated for 1 hour at room temperature. After four times washing with TBS-T, TMB solution was added into the plate and incubated for 15 min at room temperature, then 1N sulfuric acid was added to stop the reaction. The absorbance was measured at 450 nm/570 nm.

[6] = target: T1, recombinant human latent TGF-beta 1 …; assay: SPR, Biacore T200, 37 C, pH 7.4; antibody captured by anti-human Fc; 1:1 model; footnote: slow off rate <1E-05, KD cannot be uniquely determined
Protocol: as §2

[7] = target: T4, mouse cell surface latent TGF-beta 1 (mouse, UniProt P04202 30-390); assay: FACS on Ba/F3 cells, PE-labelled secondary antibody, MFI
T4 construct: Endogenous latent TGF-beta 1 (forming LLC) on Ba/F3 cells, and the latent TGF-beta 1 of mouse PBMC in the co-culture assay; also called cell surface mouse latent TGF-beta 1; latent TGF-beta 1 on Ba/F3 cells
Protocol: (§3) Anti-latent TGF-beta 1 antibodies were incubated with each cell line for 30 minutes at 4 degrees C. and washed with FACS buffer (2% FBS, 2 mM EDTA in PBS). Anti-KLH antibody (IC17) was used for a negative control antibody. Goat F(ab′)2 anti-Human IgG, Mouse ads-PE (Southern Biotech, Cat. 2043-09) or Goat F(ab′)2 anti-Mouse IgG(H+L), Human Ads-PE (Southern Biotech, Cat. 1032-09) was then added and incubated for 30 minutes at 4 degrees C. and washed with FACS buffer. Data acquisition was performed on an FACS Verse (Becton Dickinson), followed by analysis using FlowJo software (Tree Star) and GraphPad Prism software (GraphPad).

[8] = target: T5, human cell surface latent TGF-beta 1 (human, UniProt P01137 30-390); assay: FACS on FreeStyle 293-F cells, PE-labelled secondary antibody, MFI
T5 construct: also called cell surface human latent TGF-beta 1
Protocol: as §3

[9] = target: T1, recombinant human latent TGF-beta 1 …; assay: SPR, Biacore T200, 37 C, pH 7.4; antibody captured by anti-human Fc, latent TGF-beta 1 at 12.5 to 200 nM as analyte; 1:1 model; remark: listed apart in the source
Protocol: as §1

[10] = target: T2, recombinant mouse latent TGF-beta 1 …; assay: as above
Protocol: as §1

[11] = target: T1, recombinant human latent TGF-beta 1 …; assay: SPR, Biacore 8K, 37 C, pH 7.4; antibody captured by anti-human Fc, latent TGF-beta 1 as analyte; 1:1 model

T1 sequence (P01137 other isoform, or with tags, fused parts or gaps limits assumed): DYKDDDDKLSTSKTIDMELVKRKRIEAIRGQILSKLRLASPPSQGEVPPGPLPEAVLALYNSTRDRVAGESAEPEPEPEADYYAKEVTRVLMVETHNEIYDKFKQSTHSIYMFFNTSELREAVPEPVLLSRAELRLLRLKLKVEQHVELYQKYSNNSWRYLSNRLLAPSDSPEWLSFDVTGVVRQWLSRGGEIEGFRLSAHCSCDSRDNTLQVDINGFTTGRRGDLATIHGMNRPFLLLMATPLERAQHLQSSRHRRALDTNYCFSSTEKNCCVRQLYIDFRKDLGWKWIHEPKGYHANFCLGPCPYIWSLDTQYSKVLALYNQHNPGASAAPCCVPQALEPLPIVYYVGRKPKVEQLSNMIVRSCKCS
T2 sequence (P04202 other isoform, or with tags, fused parts or gaps limits assumed): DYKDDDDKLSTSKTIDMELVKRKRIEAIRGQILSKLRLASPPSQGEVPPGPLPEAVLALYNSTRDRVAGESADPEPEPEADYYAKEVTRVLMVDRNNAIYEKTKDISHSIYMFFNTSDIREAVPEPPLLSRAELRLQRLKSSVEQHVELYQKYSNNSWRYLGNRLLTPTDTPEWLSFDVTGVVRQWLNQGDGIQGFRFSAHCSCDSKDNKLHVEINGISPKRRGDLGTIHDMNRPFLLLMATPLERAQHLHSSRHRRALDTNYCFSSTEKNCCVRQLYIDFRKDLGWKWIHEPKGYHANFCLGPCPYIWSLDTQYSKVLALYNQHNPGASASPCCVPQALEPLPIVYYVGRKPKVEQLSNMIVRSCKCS
T3 sequence (P04202 279-390 limits assumed): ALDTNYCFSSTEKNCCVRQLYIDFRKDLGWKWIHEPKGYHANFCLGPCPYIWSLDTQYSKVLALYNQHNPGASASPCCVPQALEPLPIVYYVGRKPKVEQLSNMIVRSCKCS
T4 sequence (P04202 30-390): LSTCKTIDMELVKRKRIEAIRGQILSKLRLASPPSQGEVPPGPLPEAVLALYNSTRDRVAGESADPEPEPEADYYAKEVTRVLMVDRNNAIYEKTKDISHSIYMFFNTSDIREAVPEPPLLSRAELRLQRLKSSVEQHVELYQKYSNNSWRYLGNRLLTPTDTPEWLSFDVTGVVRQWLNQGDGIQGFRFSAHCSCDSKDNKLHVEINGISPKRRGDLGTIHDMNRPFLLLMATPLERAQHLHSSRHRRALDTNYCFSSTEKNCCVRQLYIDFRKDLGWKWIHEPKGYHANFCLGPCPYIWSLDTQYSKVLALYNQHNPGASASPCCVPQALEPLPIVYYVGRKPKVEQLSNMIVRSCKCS
T5 sequence (P01137 30-390): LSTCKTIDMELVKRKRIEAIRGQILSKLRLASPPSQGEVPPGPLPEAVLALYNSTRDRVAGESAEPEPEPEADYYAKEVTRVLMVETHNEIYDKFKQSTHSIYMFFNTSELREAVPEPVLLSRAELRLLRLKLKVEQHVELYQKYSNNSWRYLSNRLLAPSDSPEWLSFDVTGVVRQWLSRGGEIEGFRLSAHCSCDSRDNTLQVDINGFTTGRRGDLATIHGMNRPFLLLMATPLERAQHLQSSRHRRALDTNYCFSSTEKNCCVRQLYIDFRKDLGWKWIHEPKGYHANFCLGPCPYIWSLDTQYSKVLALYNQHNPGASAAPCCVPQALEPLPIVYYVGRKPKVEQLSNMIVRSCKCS

Kd [3]: 0.0188 nM
koff [3]: 1.63e-05 s⁻¹
kon [3]: 867000 M⁻¹ s⁻¹
B2: TBA1277 (antibody, human IgG1, kappa, V domains shown)
VH: QSVEESGGRLVTPGTPLTLTCTASGFSLSNYDMSWVRQAPGKGLEWIGNIHTADTTSYARWAKGRFTISKTSTTVDLKITSPTSEDTATYFCARGGSDFFYYEPYNIWGPGTLVTVSS
VL: AYDMTQTPASVEAAVGGTVTVRCQASESIGSRLAWYQQKVGQPPKLLIYDASTLASGVSSRFKGSGSGTEFTLTISDLECDDAATYYCQQYYTSNNVENTFGGGTKVEIKR
notes: also called TBA1277cc-F1332m

kon [3]: 402000 M⁻¹ s⁻¹
Kd [6]: ≤ 0.00738 nM
koff [6]: < 1e-05 s⁻¹
B5: TBA1314 (antibody, human IgG1, kappa, V domains shown)
VH: QSVEESGGRLVTPGTPLTLTCTVSGFSLSNYAMTWVRQAPGKGLEWIGVIYAGGNTYYANWVNGRFTISKTSTTVDLKITSPTTEDTATYFCARDVGSSSSGVYFNIWGPGTLVTVSS
VL: AYDMTQTPASVEVAVGGTVTIKCQASQSIGSRLAWYQQKPGQPPKLLIYDASTLASGVSSRFKGSGSGTEFTLTISGVECADAATYYCQQDYSYRHVDNIFGGGTKVEIKR
notes: also called TBA1314aa-F1332m

binding result [7]: no binding
binding result [8]: no binding
Kd [9]: 0.292 nM
koff [9]: 6.72e-05 s⁻¹
kon [9]: 230000 M⁻¹ s⁻¹
Kd [10]: 0.276 nM
koff [10]: 5.15e-05 s⁻¹
kon [10]: 187000 M⁻¹ s⁻¹
B7: TBA873 (antibody, human IgG1, kappa, V domains shown)
VH: QSLEESGGRLVTPGGSLTLTCTVSGIDLSSYAMGWVRQAPGKGLEYIGIISNSGLTDYASWVNGRFTISKTSTTVDLKITSLTTEDTATYFCARIYDLWGPGTLVTVSS
VL: DIVMTQTPASVEAAVGGTVTIKCQASQSISNQLSWYQQKPGQPPKLLIYRASTLASGVSSRFKGSGSGTQFTLTISDLECAAAATYYCQSYYYSVSSTYGNTFGGGTKVEIKR

Further lines, the binder ahead of its results:

B1: TBS182 (antibody, V domains shown)
VH: QSLEESGGDLVKPGASLTLTCTASGFSFSRSYYMCWVRQAPGKGLEWIACIYGGSSGSTWYASWAKGRFTISKTSSTTVTLQMTSLTAADTATYFCARDIGNYYRWWGPGTLVTVSS
VL: AVVLTQTTSPVSAPVGGTVTIKCQASKNIYSLLAWYQQKPGQPPKLLIYDASTLASGVPSRFKGSGSGTQFTLTISDLECADAATYYCQSYYDSSSSADLSTFGGGTEVVVKR
binding result [1]: no binding (tested: 50 nM)
Kd [2]: 0.0482 nM
koff [2]: 5.32e-05 s⁻¹
kon [2]: 1.1e+06 M⁻¹ s⁻¹

B3: TBA1300 (antibody, human IgG1, kappa, V domains shown)
VH: QEQLKESGGGLVTPGGTLTLTCTVSGFSLSNYDMSWVRQAPGKGLEWIGAIYTAGTTSYASWAKGRFTISKTSTTVDLKITSPTTEDTATYFCARGGSSFFYYAAHNIWGPGTLVTVSS
VL: AYDMTQTPASVEAAVGGTVTIKCQASQSIGSNLAWYQQKPGQPPKLLIYDASKLPSGVPSRFKGSGSGTEFTLTISDLECDDAATYYCQQYYTTSDVDNTFGGGTKVEIKR
notes: also called TBA1300ff-F1332m
Kd [3]: 0.0389 nM
koff [3]: 2.31e-05 s⁻¹
kon [3]: 593000 M⁻¹ s⁻¹

B4: TBA0946 (antibody, human IgG1, kappa, V domains shown)
VH: QSLEESGGRLVTPGTPLTLTCTTSGFSLNNYYMNWVRQAPGKGLEWIGLTDNDGTTYYANWAKGRFTVSKTSTTVDLKMTSPTTEDTATYFCVRDAGYSRNLWGPGTLVTVSS
VL: AYDMTQTPASVEVAVGGTVTIKCQASQSISSSLAWYQQKPGQPPKQLIYRASTLASGVSSRFKGSGSGTQFTLTISGVECADAATYYCQQTYSWSGLDNVFGGGTKVEIKR
notes: also called TBA0946bb-F1332m; TBA946
Kd [4]: 0.0793 nM
koff [4]: 7.66e-05 s⁻¹
kon [4]: 966000 M⁻¹ s⁻¹
binding result [5]: no binding (tested: 10 µg/mL)

B6: TBA865 (antibody, human IgG1, kappa, V domains shown)
VH: B7 VH with N52S, L82P
VL: B7 VL with V19L, N31D, A55E, S59P, A82D, V95Y
binding result [7]: no binding
binding result [8]: no binding
Kd [9]: 0.16 nM
koff [9]: 6.55e-05 s⁻¹
kon [9]: 410000 M⁻¹ s⁻¹
Kd [10]: 0.158 nM
koff [10]: 5.37e-05 s⁻¹
kon [10]: 341000 M⁻¹ s⁻¹

B8: TBA1172 (antibody, human IgG1, kappa, V domains shown)
VH: QSVEESGGRLVTPGTPLTLTCTVSGFSLSNYAMGWVRQAPGKGLEWIGIISSGGVSYYASWARGRFTISKTSTTVDLKITSPTPEDTGTYFCARGQVPSSDTYYVPFNLWGPGTLVTVSS
VL: DIAMTQTPASVEAAVGGTVTIKCQASQSIGSDLAWYQQKPGQPPKLLIYRASTLASGVPLRFKGSGSGTQFTLTISDLECADAATYYCQTYYFTISSYGAFGGGTKVEIKR
notes: also called TBA1172aa-F1332m; TBS1172
Kd [11]: 88 nM
koff [11]: 0.0229 s⁻¹
kon [11]: 261000 M⁻¹ s⁻¹
Kd [4]: 0.0919 nM
koff [4]: 9.13e-05 s⁻¹
kon [4]: 994000 M⁻¹ s⁻¹
binding result [5]: no binding (tested: 10 µg/mL)

B9: TBS139 (antibody, mouse IgG1, kappa, V domains shown)
VH: QSLEESGGDLVKPGASLTLTCTASGFSFSSYWMSWVRQAPGKGLEYIGMISIIGTTYYASWAKGRFTISKTSSTTVTLQVTSLTAADTATYFCARGYVSNSNYWGLWGPGTLVTVSS
VL: AYDMTQTPASVEVAVGGTVTIKCQASQNIGSNLAWYQQKPGQPPKLLIYYASDLASGVPSRFKGSGSGTRYTLTISGVQCDDAATYYCQQYWSSSNVDNTFGGGTEVVVKR
binding result [1]: no binding (tested: 50 nM)
Kd [2]: 0.0225 nM
koff [2]: 3.96e-05 s⁻¹
kon [2]: 1.76e+06 M⁻¹ s⁻¹

B10: TBA0947 (antibody, human IgG1, kappa, V domains shown)
VH: QSVEESGGRLVTPGTPLTLTCTVSGFSLSSYAMNWVRQAPGKGLEWIGYIYTSGTTYHANWARGRFTISKTSTTVDLKMTSLTTEDTATYFCARGTGISDYYYWVMDLWGPGTLVTVSS
VL: AFELTQTPSSVEAAVGGTVTIKCQASQSISTYLAWYQQRPGQPPKLLIYKASTLASGVPSRFKGSGSGTDFTLTISDLECADAATYFCQSYCDGDSVGFGGGTKVEIKR
notes: also called TBA0947gg-F1332m; TBA947
Kd [11]: 7.65 nM
koff [11]: 0.00224 s⁻¹
kon [11]: 292000 M⁻¹ s⁻¹
Kd [4]: 0.0419 nM
koff [4]: 1.07e-05 s⁻¹
kon [4]: 256000 M⁻¹ s⁻¹
binding result [5]: no binding (tested: 10 µg/mL)
